Key:
KstR2Mtb [1] = biological target: T1, KstR2Mtb (Mycobacterium tuberculosis, UniProt P9WMB9 1-200); experiment: EMSA; 20 mM Tris/HCl pH 8.0, 10 mM MgCl2, 75 mM NaCl, 20 min at 37 C; […]; settings: protein: recombinant; tags: none in EMSA (His6 tag removed with TEV protease); chain copies: 2; label: 3' DIG-11-ddUTP (end-labelled)
KstR2Mtb [2] = biological target: T1, KstR2Mtb; experiment: EMSA; 1 uM DNA, 6 uM protein, 10 mM MgCl2; 20 mM Tris/HCl pH 8.0, 10 mM MgCl2, 75 mM NaCl, 20 min at 37 C; […]; settings: protein: recombinant; tags: none in EMSA (His6 tag removed with TEV protease); chain copies: 2; label: none (ethidium bromide stain); blunt

T1 sequence (P9WMB9 whole entry): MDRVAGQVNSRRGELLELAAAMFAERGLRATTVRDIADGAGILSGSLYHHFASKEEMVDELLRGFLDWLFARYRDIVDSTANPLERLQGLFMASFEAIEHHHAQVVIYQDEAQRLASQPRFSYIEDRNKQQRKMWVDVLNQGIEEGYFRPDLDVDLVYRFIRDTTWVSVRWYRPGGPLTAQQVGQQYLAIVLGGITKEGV

B1: Rv3557c/Rv3558 probe, DIG-labelled (dsDNA)
DNA 1: GCTGGCCGAGCAAGCGCTTGGTTGATAGTC
DNA 2: GACTATCAACCAAGCGCTTGCTCGGCCAGC
B1: binds (KstR2Mtb [1]).

B2: Rv3557c/Rv3558 probe (dsDNA)
DNA 1: B1 DNA 1
DNA 2: B1 DNA 2
B2: binds (KstR2Mtb [2]).

B3: Rv3560c/Rv3561 probe (dsDNA)
DNA 1: GCTAACCTACCAAGCACTTGCTTTGTTAGG
DNA 2: CCTAACAAAGCAAGTGCTTGGTAGGTTAGC
B3: binds (KstR2Mtb [2]).

B4: Rv3549c/Rv3550 probe (dsDNA)
DNA 1: GCGTACCAAGCAAGTGCTTGCTTAGGTAGC
DNA 2: GCTACCTAAGCAAGCACTTGCTTGGTACGC
B4: binds (KstR2Mtb [2]).
